Stoichiometry N data for one substance are collected here from publication PMC11437398.

In general, stoichiometry N refers to a count of units in the complex or per binding partner.

The assay addresses rabies virus glycoprotein (G) (rabies virus (strain CVS-27)) (UniProt O92284). Kind of assay: cryo-electron tomography.

For the substance “rabies virus glycoprotein (G) (from UniProt O92284 20-524) (natural protein)”, the stoichiometry N was 3.
